What was measured:
Assay in all cases: holdup assay
Parameters in all cases: key: below the threshold = too weak to quantify, mostly under pKd 3.1 to 4
MPP6, Q9NZW5 = biological target: T1, MPP6, Q9NZW5
T1 sequence (Q9NZW5 125-219, limits assumed, looked up): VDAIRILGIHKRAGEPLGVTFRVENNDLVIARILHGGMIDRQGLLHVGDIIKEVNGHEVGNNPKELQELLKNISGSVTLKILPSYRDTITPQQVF

GRIP1_4, Q9Y3R0 = biological target: T2, GRIP1_4, Q9Y3R0
T2 sequence (Q9Y3R0 467-571, limits assumed, looked up): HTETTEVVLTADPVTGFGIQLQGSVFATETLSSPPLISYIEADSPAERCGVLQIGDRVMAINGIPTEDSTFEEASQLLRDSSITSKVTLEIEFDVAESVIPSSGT

Inadl_4, Q8NI35 = biological target: Inadl_4, Q8NI35
APBA1_2, Q02410 = biological target: T3, APBA1_2, Q02410
T3 sequence (Q02410 742-832, limits assumed, looked up): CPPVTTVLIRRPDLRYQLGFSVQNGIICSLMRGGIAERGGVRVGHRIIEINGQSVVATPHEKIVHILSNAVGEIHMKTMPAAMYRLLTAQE

FRMPD2_2, Q68DX3 = biological target: FRMPD2_2, Q68DX3
MPDZ_12, O75970 = biological target: T4, MPDZ_12, O75970
T4 sequence (O75970 1857-1958, limits assumed, looked up): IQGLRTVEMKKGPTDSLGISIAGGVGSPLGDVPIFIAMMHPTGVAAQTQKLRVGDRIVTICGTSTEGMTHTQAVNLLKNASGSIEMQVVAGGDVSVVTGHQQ

Inadl_6, Q8NI35 = biological target: Inadl_6, Q8NI35
GRIP1_3, Q9Y3R0 = biological target: T5, GRIP1_3, Q9Y3R0
T5 sequence (Q9Y3R0 247-346, limits assumed, looked up): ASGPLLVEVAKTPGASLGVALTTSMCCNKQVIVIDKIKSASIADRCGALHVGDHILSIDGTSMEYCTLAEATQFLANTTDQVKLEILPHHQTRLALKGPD

CASK, O14936 = biological target: CASK, O14936
DFNB31_1, Q9P202 = biological target: T6, DFNB31_1, Q9P202
T6 sequence (Q9P202 135-233, limits assumed, looked up): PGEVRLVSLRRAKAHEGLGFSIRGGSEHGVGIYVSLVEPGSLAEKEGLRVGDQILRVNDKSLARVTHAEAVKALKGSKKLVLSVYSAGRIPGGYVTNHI

LAP2, Q96RT1 = biological target: LAP2, Q96RT1
MAGI2_4, Q86UL8 = biological target: MAGI2_4, Q86UL8
PCLO, Q9Y6V0 = biological target: T7, PCLO, Q9Y6V0
T7 sequence (Q9Y6V0 4491-4600, limits assumed, looked up): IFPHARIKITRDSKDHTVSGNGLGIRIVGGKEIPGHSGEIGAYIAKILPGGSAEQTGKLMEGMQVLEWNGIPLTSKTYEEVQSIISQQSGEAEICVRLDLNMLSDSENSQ

PARD3B_1, Q8TEW8 = biological target: T8, PARD3B_1, Q8TEW8
T8 sequence (Q8TEW8 196-299, limits assumed, looked up): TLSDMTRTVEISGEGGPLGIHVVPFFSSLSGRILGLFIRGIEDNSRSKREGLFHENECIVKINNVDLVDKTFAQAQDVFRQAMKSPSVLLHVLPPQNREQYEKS

FRMPD2_3, Q68DX3 = biological target: FRMPD2_3, Q68DX3
TJP1_2, Q07157 = biological target: TJP1_2, Q07157
APBA3_1, O96018 = biological target: T9, APBA3_1, O96018
T9 sequence (O96018 389-490, limits assumed, looked up): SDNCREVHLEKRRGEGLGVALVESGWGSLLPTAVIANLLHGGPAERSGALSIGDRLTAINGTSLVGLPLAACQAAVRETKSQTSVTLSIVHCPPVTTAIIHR

PTPN13_1, Q12923 = biological target: T10, PTPN13_1, Q12923
T10 sequence (Q12923 1088-1188, limits assumed, looked up): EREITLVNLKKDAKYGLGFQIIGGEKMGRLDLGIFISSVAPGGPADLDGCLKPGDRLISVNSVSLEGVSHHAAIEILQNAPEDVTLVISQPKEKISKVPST

PDZD7_3, Q9H5P4 = biological target: T11, PDZD7_3, Q9H5P4
T11 sequence (Q9H5P4 857-944, limits assumed, looked up): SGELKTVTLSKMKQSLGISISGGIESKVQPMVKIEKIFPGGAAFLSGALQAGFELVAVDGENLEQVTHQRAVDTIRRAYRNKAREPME

DLG1_2, Q12959 = biological target: DLG1_2, Q12959
NHERF2_2, Q15599 = biological target: NHERF2_2, Q15599
GIPC2, Q8TF65 = biological target: GIPC2, Q8TF65
SHANK1, Q9Y566 = biological target: T12, SHANK1, Q9Y566
T12 sequence (Q9Y566 658-767, limits assumed, looked up): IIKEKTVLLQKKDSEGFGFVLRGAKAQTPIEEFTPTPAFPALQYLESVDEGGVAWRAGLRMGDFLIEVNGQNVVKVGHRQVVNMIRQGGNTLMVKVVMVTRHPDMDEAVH

DLG3_2, Q92796 = biological target: T13, DLG3_2, Q92796
T13 sequence (Q92796 221-321, limits assumed, looked up): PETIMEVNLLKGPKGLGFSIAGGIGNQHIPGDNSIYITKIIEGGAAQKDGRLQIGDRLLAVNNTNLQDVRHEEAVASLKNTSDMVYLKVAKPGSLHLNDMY

[1] = plain residues with an end cap or a label only (N-terminal biotin on a linker: ttds)
[2] = plain residues with an end cap or a label only (N-terminal biotin on a linker: ado-ado)

Sequence of FRMPD2_3, Q68DX3 (Q68DX3 1073-1166): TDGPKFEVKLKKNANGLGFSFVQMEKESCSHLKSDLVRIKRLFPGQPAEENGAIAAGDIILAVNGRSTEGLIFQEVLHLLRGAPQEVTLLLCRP
Sequence of DLG1_2, Q12959 (Q12959 314-412): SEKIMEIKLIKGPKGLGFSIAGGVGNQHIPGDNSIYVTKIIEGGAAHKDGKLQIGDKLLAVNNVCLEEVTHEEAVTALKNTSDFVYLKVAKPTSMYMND
Sequence of LAP2, Q96RT1 (Q96RT1 other isoform, or with tags, fused parts or gaps): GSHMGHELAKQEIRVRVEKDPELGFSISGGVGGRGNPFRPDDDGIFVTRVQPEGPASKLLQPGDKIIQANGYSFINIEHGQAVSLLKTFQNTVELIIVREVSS
Sequence of MAGI2_4, Q86UL8 (Q86UL8 772-865): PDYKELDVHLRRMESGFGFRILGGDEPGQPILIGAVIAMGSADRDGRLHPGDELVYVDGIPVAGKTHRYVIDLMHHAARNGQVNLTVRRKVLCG
Sequence of TJP1_2, Q07157 (Q07157 181-274): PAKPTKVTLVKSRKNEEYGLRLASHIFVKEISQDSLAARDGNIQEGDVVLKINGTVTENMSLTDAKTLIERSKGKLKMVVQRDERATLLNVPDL
Sequence of Inadl_6, Q8NI35 (Q8NI35 1058-1167): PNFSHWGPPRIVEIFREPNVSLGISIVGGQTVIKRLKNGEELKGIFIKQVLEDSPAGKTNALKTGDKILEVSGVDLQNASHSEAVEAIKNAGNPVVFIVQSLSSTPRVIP
Sequence of GIPC2, Q8TF65 (Q8TF65 112-203): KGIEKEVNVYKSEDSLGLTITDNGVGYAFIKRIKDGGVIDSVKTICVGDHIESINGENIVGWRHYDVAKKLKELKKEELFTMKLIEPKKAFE
Sequence of FRMPD2_2, Q68DX3 (Q68DX3 944-1038): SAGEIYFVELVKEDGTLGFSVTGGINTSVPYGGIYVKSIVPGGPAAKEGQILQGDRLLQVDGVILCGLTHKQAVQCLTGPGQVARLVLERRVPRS
Sequence of Inadl_4, Q8NI35 (Q8NI35 547-651): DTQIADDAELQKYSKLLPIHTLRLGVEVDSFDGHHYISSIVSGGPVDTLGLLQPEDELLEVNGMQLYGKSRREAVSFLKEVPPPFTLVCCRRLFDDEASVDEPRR
Sequence of NHERF2_2, Q15599 (Q15599 142-238): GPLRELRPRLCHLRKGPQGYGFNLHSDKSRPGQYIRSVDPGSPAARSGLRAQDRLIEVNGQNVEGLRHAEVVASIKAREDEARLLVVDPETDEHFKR
Sequence of CASK, O14936 (O14936 487-570): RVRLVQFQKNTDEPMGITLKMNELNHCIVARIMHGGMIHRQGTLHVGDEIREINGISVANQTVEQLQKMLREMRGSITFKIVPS

RRVRKLPSTTL [RPS6KA1, Q15418] was tested, and the pKd (MPP6, Q9NZW5; [1]) was 3.73, the pKd (GRIP1_4, Q9Y3R0; [1]) was “below the threshold” and the pKd (Inadl_4, Q8NI35; [1]) was “below the threshold”. The pKd (APBA1_2, Q02410; [1]) was “below the threshold”, the pKd (FRMPD2_2, Q68DX3; [1]) was “below the threshold” and the pKd (MPDZ_12, O75970; [1]) was “below the threshold”. The pKd (Inadl_6, Q8NI35; [1]) was “below the threshold”, the pKd (GRIP1_3, Q9Y3R0; [1]) was “below the threshold” and the pKd (CASK, O14936; [1]) was “below the threshold”. The pKd (DFNB31_1, Q9P202; [1]) was 3.53, the pKd (LAP2, Q96RT1; [1]) was “below the threshold” and the pKd (MAGI2_4, Q86UL8; [1]) was 3.78. The pKd (PCLO, Q9Y6V0; [1]) was “below the threshold”, the pKd (PARD3B_1, Q8TEW8; [1]) was 4.4 and the pKd (FRMPD2_3, Q68DX3; [1]) was “below the threshold”. The pKd (TJP1_2, Q07157; [1]) was 3.51, the pKd (APBA3_1, O96018; [1]) was “below the threshold” and the pKd (PTPN13_1, Q12923; [1]) was “below the threshold”. It also gave a pKd (PDZD7_3, Q9H5P4; [1]) of 4.93, a pKd (DLG1_2, Q12959; [1]) of 3.7 and a pKd (NHERF2_2, Q15599; [1]) of 3.97. For the same binder, the pKd (GIPC2, Q8TF65; [1]) was “below the threshold”, the pKd (SHANK1, Q9Y566; [1]) was 4.17 and the pKd (DLG3_2, Q92796; [1]) was “below the threshold”.

For EDLTKNHDEL [RCN1, Q15293], the pKd (MPP6, Q9NZW5; [2]) was “below the threshold”, the pKd (GRIP1_4, Q9Y3R0; [2]) was “below the threshold” and the pKd (Inadl_4, Q8NI35; [2]) was “below the threshold”. For the same binder, the pKd (APBA1_2, Q02410; [2]) was 3.66, the pKd (FRMPD2_2, Q68DX3; [2]) was “below the threshold” and the pKd (MPDZ_12, O75970; [2]) was “below the threshold”. For the same binder, the pKd (Inadl_6, Q8NI35; [2]) was “below the threshold”, the pKd (GRIP1_3, Q9Y3R0; [2]) was “below the threshold” and the pKd (CASK, O14936; [2]) was “below the threshold”. For the same binder, the pKd (DFNB31_1, Q9P202; [2]) was “below the threshold”, the pKd (LAP2, Q96RT1; [2]) was “below the threshold” and the pKd (MAGI2_4, Q86UL8; [2]) was 3.57. For the same binder, the pKd (PCLO, Q9Y6V0; [2]) was “below the threshold”, the pKd (PARD3B_1, Q8TEW8; [2]) was “below the threshold” and the pKd (FRMPD2_3, Q68DX3; [2]) was “below the threshold”. The pKd (TJP1_2, Q07157; [2]) was “below the threshold”, the pKd (APBA3_1, O96018; [2]) was “below the threshold” and the pKd (PTPN13_1, Q12923; [2]) was “below the threshold”. The pKd (PDZD7_3, Q9H5P4; [2]) was “below the threshold”, the pKd (DLG1_2, Q12959; [2]) was “below the threshold” and the pKd (NHERF2_2, Q15599; [2]) was 3.74. The pKd (GIPC2, Q8TF65; [2]) was “below the threshold”, the pKd (SHANK1, Q9Y566; [2]) was “below the threshold” and the pKd (DLG3_2, Q92796; [2]) was “below the threshold”.

In the case of NYWPGKETQL [SLCO1C1, Q9NYB5], the pKd (MPP6, Q9NZW5; [1]) is reported as 3.74, the pKd (GRIP1_4, Q9Y3R0; [1]) is reported as “below the threshold” and the pKd (Inadl_4, Q8NI35; [1]) is reported as “below the threshold”. The pKd (APBA1_2, Q02410; [1]) was 4.08, the pKd (FRMPD2_2, Q68DX3; [1]) was “below the threshold” and the pKd (MPDZ_12, O75970; [1]) was “below the threshold”. The pKd (Inadl_6, Q8NI35; [1]) was 4.61, the pKd (GRIP1_3, Q9Y3R0; [1]) was “below the threshold” and the pKd (CASK, O14936; [1]) was “below the threshold”. The pKd (DFNB31_1, Q9P202; [1]) was 4.44, the pKd (LAP2, Q96RT1; [1]) was 3.92 and the pKd (MAGI2_4, Q86UL8; [1]) was “below the threshold”. The pKd (PCLO, Q9Y6V0; [1]) was “below the threshold”, the pKd (PARD3B_1, Q8TEW8; [1]) was 3.7 and the pKd (FRMPD2_3, Q68DX3; [1]) was “below the threshold”. For the same binder, the pKd (TJP1_2, Q07157; [1]) was “below the threshold”, the pKd (APBA3_1, O96018; [1]) was “below the threshold” and the pKd (PTPN13_1, Q12923; [1]) was “below the threshold”. It also gave a pKd (PDZD7_3, Q9H5P4; [1]) of 4.62, a pKd (DLG1_2, Q12959; [1]) of 5.37 and a pKd (NHERF2_2, Q15599; [1]) of 4.69. The pKd (GIPC2, Q8TF65; [1]) was “below the threshold”, the pKd (SHANK1, Q9Y566; [1]) was 3.81 and the pKd (DLG3_2, Q92796; [1]) was 4.88.
